From patent publication US20050221478A1, “Control of es cell self renewal and lineage specification, and medium therefor” (University of Edinburgh, priority 2002, published 2005) come the findings set out here.

Experiment [1] has as its system ES cells. Put plainly: Serum-free medium and transient growth factor stimulation: numbers of undifferentiated ES cells. The format is cell-based. The settings on record: factor continuously present in LIF and BMP4 medium. The method, then: ES cells were grown initally in a medium comprising DMEM F12 plus neurobasal medium (ratio 1:1) supplemented with N2-B27. ES cells were plated at very low density, about 1000-10,000 cells on a 3.5 cm diameter plate and grown on in the same medium supplemented with LIF and BMP4. […]
We observed enhanced numbers of undifferentiated ES cells, indicating increased proliferation or increased ES cell survival, or both.
After more (5-6) passages the rank order of efficacy changed to:—

Experiment [2] concerns ES cells. Put plainly: Extended passaging of ES cells in serum free, feeder cell free defined culture media. In kind it is cell-based, murine. The settings on record: after multiple passages in serum free medium. From the text:
When using the LIF and BMP4-containing medium of a specific embodiment of the present invention extended passaging of ES cells is possible. In one example, murine ES cells have been maintained for more than 20 passages over a three month period. Cells were passaged every 2-4 days depending on the plating cell density, though occasionally cells were passaged 7-10 days after plating at low density.
In an alternative embodiment, it is an option not to remove the FGF receptor inhibitor. […] ES-cells can be grown in culture for at least 20 passages in. N2B27 medium in the presence of LIF and an FGF inhibitor, in the absence of BMP. If the FGF receptor inhibitor is not removed from the medium, it is preferred that it is a specific inhibitor and has little or no activity on other receptors.
N2B27 (1:1 mixture of DMEM/F12 medium supplemented with modified N2 (25 μg/ml insulin, 100 μg/ml apo-transferrin, 6 ng/ml progesterone, 16 μg/ml putrescine, 30 nM sodium selenite and 50 μg/ml bovine serum albumin) and Neurobasal medium supplemented with B27)
ES cells were cultured in 0.1% gelatin coated dishes in N2B27 medium supplemented with LIF (100 U/ml) and BMP4 (10 ng/ml). For passaging, a standard protein-free cell dissociation buffer was used to dissociate cells.
The plating density of the cells was approximately 1-5×10^4/cm^2. […]

Experiment [3] has as its system ES cells. Put plainly: Self-renewal of pluripotent cells with agonists of a receptor of the TGF-β superfamily or FGF receptor inhibitor. In kind it is cell-based.

For “TGFβ: growth factor added to the culture medium at 1-2 ng/ml”, the “effect when continuously present” value in the experiment on ES cells [1] is “progressive differentiation of the ES cells”.

B1: activin A: growth factor added to the culture medium at 5 ng/ml (protein, UniProt P08476 311-426, looked up)
Inhibin beta A chain: GLECDGKVNICCKKQFFVSFKDIGWNDWIIAPSGYHANYCEGECPSHIAGTSGSSLSFHSTVINHYRMRGHSPFANLKSCCVPTKLRPMSMLYYDDGQNIIKKDIQNMIVEECGCS
Consider B1, for which the “effect when continuously present” value in the experiment with ES cells [1] is reported as “progressive differentiation of the ES cells”.

B2: BMP4: bone morphogenetic protein, agonist of a receptor of the TGF-β superfamily (protein, UniProt P12644 293-408, looked up)
Bone morphogenetic protein 4: SPKHHSQRARKKNKNCRRHSLYVDFSDVGWNDWIVAPPGYQAFYCHGDCPFPLADHLNSTNHAIVQTLVNSVNSSIPKACCVPTELSAISMLYLDEYDKVVLKNYQEMVVEGCGCR
For B2, the “differentiation of ES cells in the presence of BMP4 but absence of LIF” value with ES cells [2] was “differentiated into large flat cells of characteristic morphology”. The “result as agonist of a receptor of the TGF-β superfamily for self-renewal” value in the experiment on ES cells [3] is “Good results”.
